IntAct's records for PubMed 29039417

B1: Protein PTHB1 (Homo sapiens), Q3SYG4 (parent)
chain: MSLFKARDWWSTILGDKEEFDQGCLCLANVDNSGNGQDKIIVGSFMGYLRIFSPHPAKTGDGAQAEDLLLEVDLRDPVLQVEVGKFVSGTEMLHLAVLHSRKLCVYSVSGTLGNVEHGNQCQMKLMYEHNLQRTACNMTYGSFGGVKGRDLICIQSMDGMLMVFEQESYAFGRFLPGFLLPGPLAYSSRTDSFLTVSSCQQVESYKYQVLAFATDADKRQETEQQKLGSGKRLVVDWTLNIGEQALDICIVSFNQSASSVFVLGERNFFCLKDNGQIRFMKKLDWSPSCFLPYCSVSEGTINTLIGNHNNMLHIYQDVTLKWATQLPHIPVAVRVGCLHDLKGVIVTLSDDGHLQCSYLGTDPSLFQAPNVQSRELNYDELDVEMKELQKIIKDVNKSQGVWPMTEREDDLNVSVVVSPNFDSVSQATDVEVGTDLVPSVTVKVTLQNRVILQKAKLSVYVQPPLELTCDQFTFEFMTPDLTRTVSFSVYLKRSYTPSELEGNAVVSYSRPTDRNPDGIPRVIQCKFRLPLKLICLPGQPSKTASHKITIDTNKSPVSLLSLFPGFASQSDDDQVNVMGFHFLGGARITVLASKTSQRYRIQSEQFEDLWLITNELILRLQEYFEKQGVKDFACSFSGSIPLQEYFELIDHHFELRINGEKLEELLSERAVQFRAIQRRLLARFKDKTPAPLQHLDTLLDGTYKQVIALADAVEENQGNLFQSFTRLKSATHLVILLIALWQKLSADQVAILEAAFLPLQEDTQELGWEETVDAAISHLLKTCLSKSSKEQALNLNSQLNIPKDTSQLKKHITLLCDRLSKGGRLCLSTDAAAPQTMVMPGGCTTIPESDLEERSVEQDSTELFTNHRHLTAETPRPEVSPLQGVSE
partner: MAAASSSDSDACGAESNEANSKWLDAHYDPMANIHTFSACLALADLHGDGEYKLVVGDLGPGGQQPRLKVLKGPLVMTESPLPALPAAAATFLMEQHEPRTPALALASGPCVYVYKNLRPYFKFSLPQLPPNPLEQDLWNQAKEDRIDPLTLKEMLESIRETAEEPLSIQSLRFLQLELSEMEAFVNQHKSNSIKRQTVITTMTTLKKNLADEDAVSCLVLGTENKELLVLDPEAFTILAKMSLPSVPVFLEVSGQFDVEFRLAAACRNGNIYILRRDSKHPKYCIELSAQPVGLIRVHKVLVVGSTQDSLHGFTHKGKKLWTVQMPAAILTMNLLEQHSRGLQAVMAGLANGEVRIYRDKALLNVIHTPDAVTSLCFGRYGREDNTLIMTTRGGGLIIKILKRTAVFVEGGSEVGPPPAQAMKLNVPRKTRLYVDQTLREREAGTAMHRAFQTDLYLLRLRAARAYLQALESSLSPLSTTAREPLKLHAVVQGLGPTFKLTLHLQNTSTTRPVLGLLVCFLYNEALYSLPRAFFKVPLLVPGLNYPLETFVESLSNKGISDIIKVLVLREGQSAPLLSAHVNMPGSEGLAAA

Variants of: B1
Details: with bbs1_human BBS1, Q8NFJ9

Question: With L780E as the variant, how does the “effect of a mutation on the interaction” value read?
Answer: with no effect

Question: With D773E as the variant, how does the “effect of a mutation on the interaction” value read?
Answer: with no effect

Question: How did the “effect of a mutation on the interaction” value turn out when D773K was run?
Answer: with no effect

Question: How did the “effect of a mutation on the interaction” value turn out when D773A was run?
Answer: with no effect

Question: For T782K, which “effect of a mutation on the interaction” value is on record?
Answer: with no effect

Question: For T782E, which “effect of a mutation on the interaction” value is on record?
Answer: with no effect

Question: Which “effect of a mutation on the interaction” value does the source give for T782A here?
Answer: with no effect

Question: I751A was tested. Which “effect of a mutation on the interaction” value did it give?
Answer: with no effect

Question: I751E was tested. Which “effect of a mutation on the interaction” value did it give?
Answer: with no effect

Question: Which “effect of a mutation on the interaction” value does the source give for I751K here?
Answer: with no effect

Question: K789E was tested. Which “effect of a mutation on the interaction” value did it give?
Answer: with no effect

Question: Which “effect of a mutation on the interaction” value does the source give for K789A here?
Answer: with no effect

Question: For A746E, which “effect of a mutation on the interaction” value is on record?
Answer: with no effect

Question: Which “effect of a mutation on the interaction” value does the source give for A746K here?
Answer: with no effect

Question: Which “effect of a mutation on the interaction” value does the source give for E753K here?
Answer: disrupting interaction strength

Question: How did the “effect of a mutation on the interaction” value turn out when E753A was run?
Answer: with no effect

Question: Which “effect of a mutation on the interaction” value does the source give for E770A here?
Answer: with no effect

Question: E770K was tested. Which “effect of a mutation on the interaction” value did it give?
Answer: disrupting interaction strength

Question: How did the “effect of a mutation on the interaction” value turn out when L744E was run?
Answer: with no effect

Question: With L744A as the variant, how does the “effect of a mutation on the interaction” value read?
Answer: with no effect

Question: How did the “effect of a mutation on the interaction” value turn out when L744K was run?
Answer: with no effect

Question: With E765K as the variant, how does the “effect of a mutation on the interaction” value read?
Answer: with no effect

Question: Which “effect of a mutation on the interaction” value does the source give for E765A here?
Answer: with no effect

Question: With D747N as the variant, how does the “effect of a mutation on the interaction” value read?
Answer: disrupting interaction strength

Question: Which “effect of a mutation on the interaction” value does the source give for D747A here?
Answer: with no effect

Question: With D747E as the variant, how does the “effect of a mutation on the interaction” value read?
Answer: with no effect

Question: For D747K, which “effect of a mutation on the interaction” value is on record?
Answer: disrupting interaction strength

Question: How did the “effect of a mutation on the interaction” value turn out when L752A was run?
Answer: with no effect

Question: Which “effect of a mutation on the interaction” value does the source give for L752K here?
Answer: with no effect

Question: L752E was tested. Which “effect of a mutation on the interaction” value did it give?
Answer: with no effect

Question: With Q760E as the variant, how does the “effect of a mutation on the interaction” value read?
Answer: with no effect

Question: Which “effect of a mutation on the interaction” value does the source give for Q760A here?
Answer: with no effect

Question: Q760K was tested. Which “effect of a mutation on the interaction” value did it give?
Answer: with no effect

Question: How did the “effect of a mutation on the interaction” value turn out when Q742E was run?
Answer: with no effect

Question: Q742L was tested. Which “effect of a mutation on the interaction” value did it give?
Answer: disrupting interaction strength

Question: How did the “effect of a mutation on the interaction” value turn out when Q742A was run?
Answer: with no effect

Question: How did the “effect of a mutation on the interaction” value turn out when Q742K was run?
Answer: with no effect

Question: With L779E as the variant, how does the “effect of a mutation on the interaction” value read?
Answer: with no effect

Question: How did the “effect of a mutation on the interaction” value turn out when L779A was run?
Answer: with no effect

Question: Which “effect of a mutation on the interaction” value does the source give for L779K here?
Answer: with no effect

Question: Which “effect of a mutation on the interaction” value does the source give for P758E here?
Answer: with no effect

Question: With P758K as the variant, how does the “effect of a mutation on the interaction” value read?
Answer: with no effect

Question: Which “effect of a mutation on the interaction” value does the source give for P758A here?
Answer: with no effect

Question: E769K was tested. Which “effect of a mutation on the interaction” value did it give?
Answer: with no effect

Question: For E769A, which “effect of a mutation on the interaction” value is on record?
Answer: with no effect

Question: With K781E as the variant, how does the “effect of a mutation on the interaction” value read?
Answer: with no effect

Question: K781A was tested. Which “effect of a mutation on the interaction” value did it give?
Answer: with no effect

Question: With I776E as the variant, how does the “effect of a mutation on the interaction” value read?
Answer: with no effect

Question: With I776A as the variant, how does the “effect of a mutation on the interaction” value read?
Answer: with no effect

Question: With I776K as the variant, how does the “effect of a mutation on the interaction” value read?
Answer: with no effect

Question: How did the “effect of a mutation on the interaction” value turn out when A754E was run?
Answer: with no effect

Question: A754K was tested. Which “effect of a mutation on the interaction” value did it give?
Answer: with no effect

Question: For A754G, which “effect of a mutation on the interaction” value is on record?
Answer: disrupting interaction strength

Question: For A750K, which “effect of a mutation on the interaction” value is on record?
Answer: with no effect

Question: How did the “effect of a mutation on the interaction” value turn out when A750E was run?
Answer: with no effect

Question: With E790K as the variant, how does the “effect of a mutation on the interaction” value read?
Answer: with no effect

Question: For E790A, which “effect of a mutation on the interaction” value is on record?
Answer: with no effect

Question: For S787E, which “effect of a mutation on the interaction” value is on record?
Answer: with no effect

Question: Which “effect of a mutation on the interaction” value does the source give for S787A here?
Answer: with no effect

Question: How did the “effect of a mutation on the interaction” value turn out when S787K was run?
Answer: with no effect

Question: With K743E as the variant, how does the “effect of a mutation on the interaction” value read?
Answer: with no effect

Question: K743A was tested. Which “effect of a mutation on the interaction” value did it give?
Answer: with no effect

Question: L793K was tested. Which “effect of a mutation on the interaction” value did it give?
Answer: with no effect

Question: For L793E, which “effect of a mutation on the interaction” value is on record?
Answer: with no effect

Question: With L793A as the variant, how does the “effect of a mutation on the interaction” value read?
Answer: with no effect

Question: Q748K was tested. Which “effect of a mutation on the interaction” value did it give?
Answer: with no effect

Question: How did the “effect of a mutation on the interaction” value turn out when Q748E was run?
Answer: with no effect

Question: For Q748A, which “effect of a mutation on the interaction” value is on record?
Answer: with no effect

Question: With C783A as the variant, how does the “effect of a mutation on the interaction” value read?
Answer: with no effect

Question: Which “effect of a mutation on the interaction” value does the source give for C783K here?
Answer: with no effect

Question: With C783E as the variant, how does the “effect of a mutation on the interaction” value read?
Answer: with no effect

Question: For A755K, which “effect of a mutation on the interaction” value is on record?
Answer: with no effect

Question: How did the “effect of a mutation on the interaction” value turn out when A755E was run?
Answer: with no effect

Question: With G767A as the variant, how does the “effect of a mutation on the interaction” value read?
Answer: with no effect

Question: For G767K, which “effect of a mutation on the interaction” value is on record?
Answer: with no effect

Question: With G767E as the variant, how does the “effect of a mutation on the interaction” value read?
Answer: with no effect

Question: With T771S as the variant, how does the “effect of a mutation on the interaction” value read?
Answer: disrupting interaction strength

Question: T771K was tested. Which “effect of a mutation on the interaction” value did it give?
Answer: with no effect

Question: For T771E, which “effect of a mutation on the interaction” value is on record?
Answer: with no effect

Question: For T771A, which “effect of a mutation on the interaction” value is on record?
Answer: with no effect

Question: S788A was tested. Which “effect of a mutation on the interaction” value did it give?
Answer: with no effect

Question: Which “effect of a mutation on the interaction” value does the source give for S788E here?
Answer: with no effect

Question: For S788K, which “effect of a mutation on the interaction” value is on record?
Answer: with no effect

Question: A792E was tested. Which “effect of a mutation on the interaction” value did it give?
Answer: disrupting interaction strength

Question: How did the “effect of a mutation on the interaction” value turn out when A792K was run?
Answer: with no effect

Question: For Q791K, which “effect of a mutation on the interaction” value is on record?
Answer: with no effect

Question: Q791L was tested. Which “effect of a mutation on the interaction” value did it give?
Answer: disrupting interaction strength

Question: With Q791E as the variant, how does the “effect of a mutation on the interaction” value read?
Answer: with no effect

Question: Which “effect of a mutation on the interaction” value does the source give for Q791A here?
Answer: with no effect
